{
  "source": "patent US9872893B2",
  "about": "“Endolysins active against Staphylococcus bacteria, pharmaceutical compositions, and methods relating thereto” (priority 2014, dated 2018)",
  "molecules": {"B1": {"name": "PlyGRCS: endolysin of bacteriophage GRCS (ORF15), amino acids 1-250, SEQ ID NO: 5, C-terminal 6× His tag (protein)", "chain": "MKSQQQAKEWIYKHEGTGVDFDGAYGFQCMDLAVAYVYYITDGKVRMWGNAKDAINNDFKGLATVYENTPSFKPQLGDVAVYTNSQYGHIQCVISGNLDYYTCLEQNWLGGGFDGWEKATIRTHYYDGVTHFIRPKFSASNSNVLETSKVNTFGNWKQNQYGTYYRNENATFTCGFLPIFARVGSPKLSEPNGYWFQPNGYTPYDEVCLSDGLVWIGYNWQGTRYYLPVRQWNGKTGNSYSIGLPWGVFS", "modifications": "C-terminal 6xHis tag; Synthetically generated polypeptide (PlyGRCS phage (S. aureus))"}},
  "key": {"[1]": {"system": "S. aureus NRS-14 static biofilms", "assay": "biofilm assay (crystal violet staining)", "assay_type": "cell-based, Staphylococcus aureus", "settings": "6.25 μg/ml, 1 hour, 1 day biofilms", "description": "An overnight culture of S. aureus NRS-14 (1 ml per well) was placed into 24-well CELLBIND plates (Corning) containing 500 μl of TSB per well. After an additional 24 hour incubation at 37° C., media was aspirated and samples were washed with PBS to remove unattached cells. Two-fold serial dilutions of PlyGRCS in triplicate were added in 1 ml BP buffer pH 7 and incubated at 37° C. for one hour. Liquid was aspirated and samples were washed with distilled water before drying. Biofilms were stained with 0.01% crystal violet for 10 min at room temperature. After removing the excess crystal violet, samples were washed with PBS and dried before the addition of 1 ml 10% SDS to extract the crystal violet from the biomass for quantification at OD595."}, "[2]": {"system": "S. aureus NRS-14 peptidoglycan", "assay": "dinitrosalicylic acid (DNSA) assay for reducing sugars", "assay_type": "biochemical, Staphylococcus aureus", "settings": "50 μg/ml, one hour, 37° C."}, "[3]": {"system": "Staphylococcus aureus, NRS-382", "assay": "plate lysis assay (spectrum of lytic activity)", "assay_type": "cell-based", "set-up": "key: strong lytic zone = ++; weak lytic zone = +; no lytic zone = −", "settings": "6 μg; S. aureus NRS-382, MRSA", "description": "(§1) The PlyGRCS spectrum of lytic activity was performed (Schmelcher M et al. (2012) Chimeric phage lysins act synergistically with lysostaphin to kill mastitis-causing Staphylococcus aureus in murine mammary glands. Appl Environ Microbiol 78(7):2297-305) with minor modifications. Bacterial cells were diluted in sterile PBS to an OD600=1, and 100 μl was spread on each plate. 10 μl spots (600 μg/ml) of PlyGRCS or CHAPGRCS were applied. Plates were incubated overnight at 37° C. Strength of lytic zones was defined qualitatively."}, "[4]": {"system": "Streptococcus equi, ATCC 9528", "assay": "plate lysis assay (spectrum of lytic activity)", "assay_type": "cell-based", "set-up": "key: strong lytic zone = ++; weak lytic zone = +; no lytic zone = −", "settings": "6 μg", "description": "as §1"}, "[5]": {"system": "stationary phase S. aureus NRS-14", "assay": "turbidity reduction assay (lytic activity)", "assay_type": "cell-based, Staphylococcus aureus", "settings": "for decrease in optical density: 15 minutes", "description": "Lytic activity was based on turbidity reduction assay (Nelson D C et al. (2012) Endolysins as antimicrobials. Adv Virus Res 83:299-365). Briefly, bacterial cells were centrifuged (4,000 RPM, 5 minutes, 4° C.), re-suspended in buffer and mixed 1:1 (v/v) with endolysin to a final OD600=1. OD600 readings were taken every 15 seconds for 20 minutes at 37° C. Endolysin activity was equated to the Vmax dictated by the linear portion of the resulting killing curve. Each experiment was performed in triplicate.\nTo determine dose response, PlyGRCS was serially diluted and each dosage (100 μl) was added in triplicate to a 96-well polystyrene microtiter plate (Nest Biotech Co, Ltd) just before addition of bacterial cells (100 μl) according to the turbidity reduction assay described above. For optimum pH determination, bacterial cells were suspended in 40 mM boric acid/phosphoric acid (BP) buffer, pH 3-11, and were challenged against PlyGRCS. The influence of NaCl on PlyGRCS activity was tested in BP buffer at the experimentally determined pH optimum using the same assay. The effect of divalent cations was determined using the turbidity reduction assay with several modifications. First, PlyGRCS was incubated at room temperature in PBS or PBS supplemented with 5 mM EDTA for 10 minutes. Second, the EDTA-treated samples received either no further treatment, or were supplemented with 6 mM CaCl2 or 6 mM MgCl2. Finally, the lytic active of the samples was then immediately assayed and compared to PlyGRCS in PBS prior to EDTA inactivation. Kinetic stability was evaluated (Son B et al. (2012) Characterization of LysB4, an endolysin from the Bacillus cereus-infecting bacteriophage B4. BMC Microbiol 12:33) with minor modifications. Lytic assays were performed in optimal conditions after PlyGRCS was incubated at indicated temperatures for 30 minutes and subsequently recovered on ice for 5 minutes."}, "[6]": {"assay": "circular dichroism melting experiments", "assay_type": "physicochemical", "settings": "0.1 mg/ml, 20 mM sodium phosphate buffer pH 7, 20-95° C. at 1° C./min", "description": "CD experiments for wild-type (WT) and active-site mutants were performed on a Chirascan CD spectrometer (Applied Photophysics) equipped with a thermoelectrically controlled cell holder. CD spectra were obtained in the far-UV range (190-260 nm) in a 1 mm path length quartz cuvette at 1 nm steps with 5 second signal averaging per data point. Spectra were collected in triplicate, followed by averaging, baseline subtraction, smoothing and conversion to mean residue ellipticity (MRE) by the Pro-Data software (Applied Photophysics). Secondary structure prediction was performed using the Provencher and Glockner method (Provencher S W & Glockner J (1981) Estimation of globular protein secondary structure from circular dichroism. Biochemistry 20(1):33-7) provided by DICHROWEB (Whitmore L & Wallace B A (2004) DICHROWEB, an online server for protein secondary structure analyses from circular dichroism spectroscopic data. Nucleic Acids Res 32:W668-73).\nMelting experiments were performed by heating PlyGRCS at a 0.1 mg/ml concentration in 20 mM sodium phosphate buffer pH 7 from 20° C. to 95° C. using a 1° C./min heating rate. MRE was monitored at 218 nm in a 1 mm path length quartz cuvette at 0.5° C. steps with 5 second signal averaging per data point. The melting data was smoothed, normalized and fit with a Boltzmann sigmoidal curve. The first derivative of the melting curve was then taken to determine the temperature (Tm) at which the folded and unfolded protein species in solution were at equilibrium (Fallas J A & Hartgerink J D (2012) Computational design of self-assembling register-specific collagen heterotrimers. Nat Commun 3:1087)."}, "[7]": {"system": "Staphylococcus epidermidis, NRS-101", "assay": "plate lysis assay (spectrum of lytic activity)", "assay_type": "cell-based", "set-up": "key to strength of lytic zone: strong lytic zone = ++; weak lytic zone = +; no lytic zone = −", "settings": "6 μg", "description": "as §1"}, "[8]": {"system": "Staphylococcus aureus, NRS-384", "assay": "plate lysis assay (spectrum of lytic activity)", "assay_type": "cell-based", "set-up": "key to strength of lytic zone: strong lytic zone = ++; weak lytic zone = +; no lytic zone = −", "settings": "6 μg; S. aureus NRS-384, MRSA", "description": "as §1"}, "[9]": {"system": "Staphylococcus aureus, NRS-71", "assay": "plate lysis assay (spectrum of lytic activity)", "assay_type": "cell-based", "set-up": "key to strength of lytic zone: strong lytic zone = ++; weak lytic zone = +; no lytic zone = −", "settings": "6 μg", "description": "as §1"}, "[10]": {"system": "Staphylococcus aureus, NRS-14", "assay": "plate lysis assay (spectrum of lytic activity)", "assay_type": "cell-based", "set-up": "key to strength of lytic zone: strong lytic zone = ++; weak lytic zone = +; no lytic zone = −", "settings": "6 μg", "description": "as §1"}, "[11]": {"settings": "highest dose of 28 to 1.75 μg/ml dose response"}},
  "data": [
    {"molecule": "B1", "values": [
      {"measurement": "decrease in biofilm biomass", "setting": "[1]", "result": "~50", "unit": "%"},
      {"measurement": "glycosidase activity (reducing sugar release)", "setting": "[2]", "result": "did not show any glycosidase activity"},
      {"measurement": "strength of lytic zone", "setting": "[3]", "result": "+"},
      {"measurement": "strength of lytic zone", "setting": "[4]", "result": "−"},
      {"measurement": "decrease in optical density", "setting": "[5]; 25 μg/mL", "result": 70, "unit": "%"},
      {"measurement": "lytic activity of EDTA-treated enzyme with excess CaCl2, compared to prior to EDTA treatment", "setting": "[5]; 5 mM EDTA then 6 mM CaCl2", "result": "nearly twice the lytic activity"},
      {"measurement": "lytic activity of EDTA-treated enzyme with magnesium", "setting": "[5]; 5 mM EDTA then 6 mM MgCl2", "result": "mimicked that of the EDTA-treated sample"},
      {"measurement": "lytic activity after EDTA treatment", "setting": "[5]; 5 mM EDTA, 10 minutes", "result": "devoid of lytic activity"},
      {"measurement": "decrease in activity by NaCl", "setting": "[5]; 500 mM NaCl, BP buffer pH 7.0", "result": "~35", "unit": "%"},
      {"measurement": "optimal pH for lytic activity", "setting": "[5]; BP buffer, pH range 3.0 to 11.0", "result": 7.0},
      {"measurement": "time to 50% decrease in optical density", "setting": "[5]; [11]", "result": "< 10", "unit": "min"},
      {"measurement": "decrease in optical density", "setting": "[5]; [11]", "result": 70, "unit": "%"},
      {"measurement": "Tm", "setting": "[6]", "result": 43.5, "unit": "°C"},
      {"measurement": "lytic activity on plates (in words)", "setting": "[7]; S. epidermidis NRS-101", "result": "greatest strength"},
      {"measurement": "strength of lytic zone", "setting": "[7]; S. epidermidis NRS-101, MRSE", "result": "++"},
      {"measurement": "strength of lytic zone", "setting": "[8]", "result": "+"},
      {"measurement": "lytic activity on plates (in words)", "setting": "[9]; S. aureus NRS-71", "result": "greatest strength"},
      {"measurement": "strength of lytic zone", "setting": "[9]; S. aureus NRS-71, MRSA", "result": "++"},
      {"measurement": "lytic activity on plates (in words)", "setting": "[10]; S. aureus NRS-14", "result": "greatest strength"},
      {"measurement": "strength of lytic zone", "setting": "[10]; S. aureus NRS-14, VISA", "result": "++"}
    ]}
  ]
}
